In assay [1] the target is EDAvidin (fusion protein between the extra domain A from fibronectin and streptavidin). Nature of the assay: SDS-PAGE of the sample not boiled against boiled; purified EDAvidin, nondenatured against denatured (boiled), Coomassie blue.
For the next assay, the target named is biotinylated ovalbumin (UniProt P01012). Kind of assay: SPR; ProteOn XPR36; OVA-biot covalently immobilised on a GLC chip (sulfo-NHS/EDC); EDAvidin in 2-fold dilutions from 100 nM, then (after regeneration with 2 μM biotin) streptavidin; PBS, 0.005% Tween 20, pH 7.4; 30 μL/min; referenced against nonbiotinylated OVA; Langmuir model. A general note: In SPR one partner is held on a chip, and binding of the other changes the refractive index at the surface.
UniProt P01012, sequence (P01012 whole entry): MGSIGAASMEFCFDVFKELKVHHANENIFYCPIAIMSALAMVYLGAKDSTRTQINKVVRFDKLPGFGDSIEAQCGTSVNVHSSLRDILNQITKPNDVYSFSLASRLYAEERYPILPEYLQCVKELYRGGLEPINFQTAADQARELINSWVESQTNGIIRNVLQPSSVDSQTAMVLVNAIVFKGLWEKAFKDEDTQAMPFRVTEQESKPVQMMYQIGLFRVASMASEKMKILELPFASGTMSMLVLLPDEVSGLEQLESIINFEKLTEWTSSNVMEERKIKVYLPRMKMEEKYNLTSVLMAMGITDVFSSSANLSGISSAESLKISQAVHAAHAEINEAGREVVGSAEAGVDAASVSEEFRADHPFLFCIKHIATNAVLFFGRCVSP

The source of these data is PMC3777173.

On to “EDAvidin (fusion protein between the extra domain A from fibronectin and streptavidin)”, for which the stoichiometry N (in general, a count of units in the complex or per binding partner) in assay [1] came out at 4. In addition, the equilibrium dissociation constant (Kd) (as a rule, the constant that tells how readily two partners part at equilibrium) in the assay with biotinylated ovalbumin amounted to 0.023 pM.
